Experimental data reported in patent publication US6649166.
Ends that are not written are not given here.

Key:
[1] = molecular target: HLA-DR molecule encoded by the allele HLA-DRB1*1501 (human)
[2] = molecular target: T1, HLA-DR molecule encoded by the allele HLA-DRB1*1301 (human); assay: competition ELISA, nonbiotinylated tracer peptide against its biotinylated form
T1 chain 1: not shown
T1 chain 2: not shown

[3] = molecular target: T1, HLA-DR molecule encoded by the allele …; assay: competition ELISA, nonbiotinylated peptide against the biotinylated tracer of that DR molecule
[4] = molecular target: T2, HLA-DR molecule encoded by the allele HLA-DRB3*0101 (human); assay: as above
T2 chain 1: not shown
T2 chain 2: not shown

[5] = molecular target: HLA-DR molecule encoded by the allele HLA-DRB1*0101 (human); assay: competition ELISA, purified HLA-DR, biotinylated tracer; minus sign = loss
[6] = molecular target: T3, HLA-DR molecule encoded by the allele HLA-DRB1*0701 (human); assay: as above
T3 chain 1: not shown
T3 chain 2: not shown

[7] = molecular target: HLA-DR molecule encoded by the allele HLA-DRB1*0301 (human); assay: as above
[8] = molecular target: HLA-DR molecule encoded by the allele HLA-DRB1*1101 (human); assay: as above
[9] = molecular target: HLA-DR molecule encoded by the allele HLA-DRB1*0401 (human); assay: as above
[10] = molecular target: T1, HLA-DR molecule encoded by the allele …; assay: as above
[11] = molecular target: T2, HLA-DR molecule encoded by the allele …; assay: as above
[12] = molecular target: HLA-DR molecule encoded by the allele HLA-DRB1*0301 (human); assay: competition ELISA, nonbiotinylated tracer peptide against its biotinylated form

Binder: YFVAKMYFNLIDT (modifications not checked) [API m1 peptide with glycine 84 substituted by an alanine]
- factor of increase in affinity [1]: 5 fold

Binder: TERVRLVTRHIYNREE (not fully specified) [B1 21-36 (nonbiotinylated peptide)]
- IC50 [2]: 320 nM
- IC50 [3]: 275 nM
- IC50 [4]: 35000 nM

Binder: KMYFTLIDTKAYK (modifications not checked) [peptide N89T, analog of the peptide P85-97A]
- relative activity (ratio of IC50 to P85-97A) [5]: 1 fold
- relative activity (ratio of IC50 to P85-97A) [6]: 3 fold
- relative activity (ratio of IC50 to P85-97A) [7]: 7 fold
- relative activity (ratio of IC50 to P85-97A) [8]: 2 fold
- relative activity (ratio of IC50 to P85-97A) [9]: 2 fold
- relative activity (ratio of IC50 to P85-97A) [10]: 1 fold
- relative activity (ratio of IC50 to P85-97A) [11]: 2 fold

Binder: AKTIAYDEEARGLE (not fully specified) [MT 2-16 (nonbiotinylated peptide)]
- IC50 [12]: 100 nM
